Entries after “also recorded” stand apart in the source; their conditions may differ. Where a SMILES comes first, the peptide text is derived from it. Where no end group is shown, it is not given here.
Key:
[1] = system: aortic allograft (plaque growth); test: Mouse aortic allograft transplant model
Method: To assess potential anti-inflammatory actions of individual serpin-derived peptides, peptide treatment was tested in mice after aortic allograft transplant at 4 weeks.
Ninety three mice had aortic allograft transplantation; 56 had PAI-1−/− (C57BL/6 background) donor to BALB/c (PAI-1+/+) recipient; and 37 had C57BL/6 wild type (PAI-1+/+) to BALB/c (PAI-1+/+) recipient. […] Due to the large number of surgeries required, both the PAI-1−/− and the WT mouse implants were utilized. The PAI-1−/− mice also allowed analysis of serpin response in a mouse transplant lacking a key thrombolysis regulating serpin, PAI-1. A 0.3 cm aortic segment isolated from the donor mouse was transplanted into the infra-renal aorta of recipient mice for aortic allograft studies (Table 1). The aortic transplant was anastomosed end-to-end using Sharpoint 11/0 nylon sutures (Surgical Specialties Corporation, Reiding, Mass., USA) under general anesthetic (6.5 mg/100 g body weight Somnotrol, MTC Pharmaceuticals, Cambridge, ON, Canada) given by intramuscular (i.m.) injection. WT C57BL/6 mice were purchased directly from Jackson Laboratories (Bar Harbor, Me., U.S.A.) and PAI-1−/− mice were bred in-house using mice supplied by Jackson Laboratories prior to surgery. Mice were followed for 4 weeks after transplant. […] Serpins or serpin-derived peptides were infused by intravenous (i.v.) tail vein injection immediately after transplant surgery, once aortic pulsation was again visible. At 4 weeks after aortic transplant, mice were euthanized with 0.05 ml euthanyl (Bimeda—MTC Animal Health Ltd., Cambridge, ON, Canada) by i.m. injection.
Donor aortic transplant implants and adjacent recipient aorta (0.5-0.6 cm long) were cut into two 0.25-0.3 cm pieces, fixed, paraffin embedded, and cut into 5 μm sections (two per aortic section, providing 4 sections for analysis of each transplanted mouse aorta) and stained with Haematoxylin and eosin for morphometric analysis. Areas of plaque, lumen and internal elastic lamina were measured by means of the Olympus application program using a Sony Power HAD3CCD color video camera attached to the microscope and calibrated to the microscope objective. The mean total cross sectional area of the intima, using sections with the largest detectable plaque area, was calculated for each aortic specimen. Numbers of invading mononuclear cells were counted per high powered field area at three sites in the intimal, medial and adventitial layers and the mean count for each arterial layer and specimen calculated.

[2] = target: T1, urokinase-type plasminogen activator (uPA) (Homo sapiens, UniProt P00749); test: uPA chromogenic enzyme activity assay; assay type: biochemical; conditions: chromogenic protease activity assay
T1 construct: purchased Sigma U0633
Method: Activity of purified NSP and Serp-1 was measured as inhibitory activity for uPA, using a chromogenic assay (Assaypro, St. Louis, Mo., USA) as previously described (for example, see, Dai E, et al. (2003) J Biol Chem 278: 18563-18572). Serp-1, NSP or individual peptides were mixed with enzyme solution at room temperature for one hour, per the manufacturers protocol (American Diagnostics). After incubation, 10 μl of chromogenic substrate was added. The 96-well plate was covered and placed in a wet box for overnight incubation at 37° C. After a 17 hr incubation, the plate was read at 405 nm by microplate reader (Bio-Tek Instruments). Reaction buffer (100 mM NaCl, 2 mM CaCl2, 100 mM Tris-HCl, pH 7.5, Triton X-100, 0.005%) was used for dilutions of proteases, Serp-1, NSP, or serpin peptides and chromogenic substrate. Residual protease activity was calculated with comparison to control samples without active serpin or peptides.
Serpin inhibition activity of peptides was also assessed using assays for uPA, tPA, plamin, PAI-1 and anti-thrombin III (ATIII). […] Peptide inhibition of ATIII (ThermoFisher Scientific, Grand Island, N.Y.) was measured as a reduction in its thrombin activity. uPA (Sigma, U0633) activity towards pefachrome uPA (Enzyme Research Laboratories, South Bend, Ind., P082-33) was used for assaying peptide inhibition. […]

[3] = system: PMA activated THP-1 monocytes; test: Membrane fluidity cell activation assay; assay type: cell-based, human; conditions: peptides 500, 1000, 1500 ng/ml, Serp-1, NSP 500 ng/mL
Method: Cellular membrane fluidity is measured by pyrene dimer formation in the lipid bilayer and is used as a non-specific measure of cell activation (Zalai C V, et al. (2001) J Am Coll Cardiol 38: 1340-1347). Increases in THP-1 human monocyte membrane fluidity, after PMA activation, correlate with changes in cell activation, adhesion and motility. […] Serpin-derived peptide treatments paralleled in vivo activity with the one exception being the S-4 peptide. […] All serpin-derived peptides were tested at three doses 500, 1000 and 1500 ng/ml.
One million >95% viable THP-1, Jurkat T, or 5×10^5 HUVEC cells were labeled with BPP (0.8 μM) for studying core membrane fluidity, three hours prior to cell activation as previously described (Viswanathan K, et al. (2009) B. J Leukoc Biol 85: 418-426; Viswanathan K, et al. (2006) Thromb Haemost 95: 499-510; Zalai C V, et al. (2001) J Am Coll Cardiol 38: 1340-1347; Viswanathan K, et al. (2012) PLoS One 7: e44694; and Christov A, et al. (2001) Lasers Surg Med 28: 414-426). […] At the end of one hour, cells were washed to remove excess fluorescent probe and monomer, excimer fluorescence emission intensities were measured at 390 nm and 485 nm, respectively, during excitation at 320 nm using a fluorescent dual wavelength reader (Fluoroskan, Thermolab systems, Oy, USA). […]

Jurkat T cells = test: RT-PCR signaling pathway gene expression analysis, Jurkat T cells; assay type: cell-based, human; conditions: vs saline
Excerpt: (§1) Shared effects of Serp-1 and S-1, one of the active Serp-1 RCL peptide inhibitors for plaque growth, on transcription of representative genes in signaling pathways were studied in human Jurkat T cell (FIG. 5A and FIG. 5B) and THP-1 monocytes (FIGS. […]). […] Serp-1 and the Serp-1 peptides (serpin-derived peptides) S-1 and S-5 were compared to saline treated controls. Genes with two-fold change in expression with P-value less than 0.05 by Student's t-test were considered significant.
(§2) To further examine potential mechanisms of inhibitory activity for individual serpin peptides, THP-1 monocyte and Jurkat T cells in culture were treated with individual serpins or serpin-derived peptides with proven inhibitory activity for plaque growth in vivo (Viswanathan K, et al. (2009) B. J Leukoc Biol 85: 418-426; Viswanathan K, et al. (2006) Thromb Haemost 95: 499-510; Chen H, et al. (2013) Antimicrob Agents Chemother 57: 4114-4127; and Viswanathan K, et al. (2012) PLoS One 7: e44694). RT-PCR signaling pathway gene arrays (Sigma-Aldrich, St. Louis, Mo., USA) were analyzed in triplicate per cell type using predicted peptide or serpin treatment.

[4] = in vivo; cited from earlier work
lethal viral sepsis = conditions: in vivo; cited from earlier work
[5] = patients with acute unstable angina after stent implantation; cited from earlier work
THP-1 monocytes = test: RT-PCR signaling pathway gene expression analysis, THP-1 monocytes; assay type: cell-based, human; conditions: THP-1 cells, vs saline
Excerpt: as §1, §2

## GTTASSDTAITLIPR [S-7]
[1]; 15 μg/mouse
  Adverse Events (number): 0

## IPRNAL [S-1, IPRNAL]
[1]; 1.5 μg/mouse
  Adverse Events (number): 0
[1]; 15 μg/mouse
  Adverse Events (kind): thrombosis; also recorded: fighting injury
  Adverse Events (number): 1
[1]; 150 μg/mouse
  Adverse Events (number): 0

## TAIVANKPF [S-5]
[1]; 1.5 μg/mouse
  Adverse Events (number): 0
[1]; 15 μg/mouse
  Adverse Events (number): 0
[1]; 150 μg/mouse
  Adverse Events (number): 0

## EVNEEGSEAAAVSGM [S-6]
[1]; 1.5 μg/mouse
  Adverse Events (kind): thrombosis
  Adverse Events (number): 1
[1]; 15 μg dose
  mortality (early thrombosis at site of aortic allograft transplant): 100%
[1]; 15 μg/mouse
  Adverse Events (kind): thromboses
  Adverse Events (number): 6

## ISRMAV [S-2, ISRMAV]
[1]; 15 μg/mouse
  Adverse Events (kind): thrombosis
  Adverse Events (number): 1

## CC(C)C[C@H](NC(=O)[C@H](C)NC(=O)[C@H](CC(N)=O)NC(=O)[C@@H](N)CCCNC(=N)N)C(=O)O [S-3, RNAL] (H-RNAL-OH; N-terminus and C-terminus assumed)
[1]; 15 μg/mouse
  Adverse Events (number): 0

## MAVLYPQVIVDHPFFFLIRNR [S-8]
[1]; 15 μg/mouse
  Adverse Events (number): 0

## IAISRM [S-4, IAISRM]
[1]; 15 μg/mouse
  Adverse Events (number): 0

B1: NSP: mammalian serpin, neuroserpin, that binds tPA and uPA (protein)
chain: TGATFPEEAIADLSVNMYNRLRATGEDENILFSPLSIALAMGMMELGAQGSTQKEIRHSMGYDSLKNGEEFSFLKEFSNMVTAKESQYVMKIANSLFVQNGFHVNEEFLQMMKKYFNAAVNHVDFSQNVAVANYINKWVENNTNNLVKDLVSPRDFDAATYLALINAVYFKGNWKSQFRPENTRTFSFTKDDESEVQIPMMYQQGEFYYGEFSDGSNEAGGIYQVLEIPYEGDEISMMLVLSRQEVPLATLEPLVKAQLVEEWANSVKKQKVEVYLPRFTVEQEIDLKDVLKALGITEIFIKDANLTGLSDNKEIFLSKAIHKSFLEVNEEGSEAAAVSGMIAISRMAVLYPQVIVDHPFFFLIRNRRTGTILFMGRVMHPETMNTSGHDFEEL
[2]
  inhibition of uPA activity: inhibited
[3]
  IEx/IMon ratio (membrane fluidity): consistently reduced membrane fluidity significantly
[1]; 15 μg/mouse
  Adverse Events (kind): thrombosis
  Adverse Events (number): 1

B2: Serp-1: secreted myxomavirus-derived protein (serpin) that binds and inhibits uPA, tPA, plasmin and factor X (protein)
chain: RDIGLWTFRYVYNESDNVVFSPYGLTSALSVLRIAAGGNTKREIDVPESVVEDSDAFLALRELFVDASVPLRPEFTAEFSSRFNTSVQRVTFNSENVKDVINSYVKDKTGGDVPRVLDASLDRDTKMLLLSSVRMKTSWRHVFDPSFTTDQPFYSGNVTYKVRMMNKIDTLKTETFTLRNVGYSVTELPYKRRQTAMLLVVPDDLGEIVRALDLSLVRFWIRNMRKDVCQVVMPKFSVESVLDLRDALQRLGVRDAFDPSRADFGQASPSNDLYVTKVLQTSKIEADERGTTASSDTAITLIPRNALTAIVANKPFMFLIYHKPTTTVLFMGTITKGEKVIYDTEGRDDVVSSV
Jurkat T cells
  BCL-2 gene expression: had no effect
  TCF7 gene expression: inhibited
Jurkat T cells; data not shown
  CCL 20 gene expression: had no effect
  CCND-1 gene expression: had no effect
  MMP7 gene expression: had no effect
  interleukin-8 (IL-8) gene expression: had no effect
[4]
  plasma half-life: 20 to 60 min
[2]
  inhibition of uPA activity: inhibited; also recorded: dose dependent with greater inhibition at the higher concentration (500 ng)
Lethal viral sepsis
  survival in mouse models of lethal viral sepsis: improved survival
[3]
  IEx/IMon ratio (membrane fluidity): consistently reduced membrane fluidity significantly
[5]
  early markers of myocardial damage: reduced early markers of myocardial damage
THP-1 monocytes
  BRCA1 gene expression: induced
  Selectin P ligand (CD162) gene expression: induced
  cyclin-dependent kinase inhibitor 1B (CDKN1; p27) gene expression: induced
  glycogen synthase (GYS) gene expression: induced

From patent publication US10550172B2, “Serpin reactive center loop peptides and methods of use” (University of Florida Research Foundation, Incorporated, priority 2015, dated 2020)
